Experimental data reported in article doi:10.1101/2023.06.22.546118 (bioRxiv, 2023).
Residue numbers refer to the chain shown, from its start. In names and notes the source's numbering stands.

Tests used:
[1] = target: the molecule itself; experiment: crystal structure
[2] = target: T1, HSV-1 UL31 full length (1-306) with R229L (SUP_UL31) (herpes simplex virus 1 (HSV-1), UniProt P10215 1-306, R229L); experiment: cryo-EM structure
T1 sequence: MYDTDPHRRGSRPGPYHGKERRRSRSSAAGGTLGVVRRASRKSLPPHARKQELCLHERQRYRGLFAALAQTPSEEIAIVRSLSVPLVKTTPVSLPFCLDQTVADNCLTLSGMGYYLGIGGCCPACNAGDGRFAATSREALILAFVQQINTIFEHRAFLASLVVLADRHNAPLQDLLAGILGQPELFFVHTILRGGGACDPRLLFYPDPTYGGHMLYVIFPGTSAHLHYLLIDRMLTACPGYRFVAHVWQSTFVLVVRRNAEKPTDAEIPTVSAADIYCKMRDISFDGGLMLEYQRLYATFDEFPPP

[3] = target: the molecule itself; experiment: cryo-EM structure
[4] = target: T2, HSV-1 UL31 full length (1-306), wild type (herpes simplex virus 1 (HSV-1), UniProt P10215 1-306); experiment: SEC
T2 sequence: T1 sequence with L229R

[5] = target: T1, HSV-1 UL31 full length (1-306) with …; experiment: SEC
[6] = target: T2, HSV-1 UL31 full length (1-306), wild …; experiment: cryo-EM structure

B1: NEC185Δ50-SUP_(UL31) heterodimer (UL31 51-306 R229L with UL34 15-185) (complex)
chain 1: QELCLHERQRYRGLFAALAQTPSEEIAIVRSLSVPLVKTTPVSLPFCLDQTVADNCLTLSGMGYYLGIGGCCPACNAGDGRFAATSREALILAFVQQINTIFEHRAFLASLVVLADRHNAPLQDLLAGILGQPELFFVHTILRGGGACDPRLLFYPDPTYGGHMLYVIFPGTSAHLHYLLIDRMLTACPGYRFVAHVWQSTFVLVVRRNAEKPTDAEIPTVSAADIYCKMRDISFDGGLMLEYQRLYATFDEFPPP
chain 2: AFEGLVQRIRLIVPSTLRGGDGEAGPYSPSSLPSRCAFQFHGHDGSDESFPIEYVLRLMNDWAEVPCNPYLRIQNTGVSVLFQGFFHRPHNAPGGAITPERTNVILGSTETTGLSLGDLDTIKGRLGLDARPMMASMWISCFVRMPRVQLAFRFMGPEDAGRTRRILCRAA
B1 was tested, and the “stoichiometry N” value [1] was 6.

B2: HSV-1 UL31 residues 51-306 with R229L (SUP_UL31), crystallization construct (domain or fragment)
chain: B1 chain 1
B2: binds [1].

B3: NEC185Δ50-DN_(UL34)/SUP_(UL31) heterodimer (UL31 51-306 R229L with UL34 15-185 D35A/E37A) (complex)
chain 1: B1 chain 1
chain 2: B1 chain 2 with D21A, E23A
B3: binds [1].

B4: HSV-1 UL34 residues 1-220 with D35A/E37A (DN_UL34) (domain or fragment)
chain: MAGLGKPYTGHPGDAFEGLVQRIRLIVPSTLRGGAGAAGPYSPSSLPSRCAFQFHGHDGSDESFPIEYVLRLMNDWAEVPCNPYLRIQNTGVSVLFQGFFHRPHNAPGGAITPERTNVILGSTETTGLSLGDLDTIKGRLGLDARPMMASMWISCFVRMPRVQLAFRFMGPEDAGRTRRILCRAAEQAITRRRRTRRSREAYGAEAGLGVAGTGFRARGD
B4: binds [2].

B5: NEC220, wild-type soluble HSV-1 nuclear egress complex (UL31 1-306 with UL34 1-220) (complex)
chain 1: T1 sequence with L229R
chain 2: B4 chain with A35D, A37E
B5: binds [3].

B6: NEC220-SUP_(UL31) (UL31 1-306 R229L with UL34 1-220) (complex)
chain 1: T1 sequence
chain 2: B4 chain with A35D, A37E
B6: binds [3].

B7: NEC220-DN_(UL34)/SUP_(UL31) (UL31 1-306 R229L with UL34 1-220 D35A/E37A) (complex)
chain 1: T1 sequence
chain 2: B4 chain
B7: binds [3].

B8: HSV-1 UL34 residues 1-220 with K137A/R139A (domain or fragment)
chain: B4 chain with A35D, A37E, K137A, R139A
B8: binds [4]; binds [5].

B9: HSV-1 UL34 residues 1-220, wild type (domain or fragment)
chain: B4 chain with A35D, A37E
B9: binds [6].

B10: HSV-1 UL34 residues 1-220 with K137A (domain or fragment)
chain: B4 chain with A35D, A37E, K137A
B10: binds [4]; binds [5].

B11: HSV-1 UL34 residues 1-220 with R139A (domain or fragment)
chain: B4 chain with A35D, A37E, R139A
B11: binds [4].
